Test results from the supplement of paper PMC10065799, “High-throughput profiling of sequence recognition by tyrosine kinases and SH2 domains using bacterial peptide display” (eLife, 2023).
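Also: 11-residue human phosphosite peptides and single-mutation variants displayed on the E. coli surface, counted by deep sequencing, each peptide's frequency after selection divided by its frequency in the unselected input library; frequency after pTyr selection over input frequency; kinase dosed for 20-30% of maximal phosphorylation in three min.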

Each sequence was assayed against Hck (UniProt P08631) (assay: phosphorylation enrichment, bacterial display (enrichment ratio); higher = better substrate or ligand; peptides without Tyr show the background).
Hck, sequence (P08631 whole entry, looked up): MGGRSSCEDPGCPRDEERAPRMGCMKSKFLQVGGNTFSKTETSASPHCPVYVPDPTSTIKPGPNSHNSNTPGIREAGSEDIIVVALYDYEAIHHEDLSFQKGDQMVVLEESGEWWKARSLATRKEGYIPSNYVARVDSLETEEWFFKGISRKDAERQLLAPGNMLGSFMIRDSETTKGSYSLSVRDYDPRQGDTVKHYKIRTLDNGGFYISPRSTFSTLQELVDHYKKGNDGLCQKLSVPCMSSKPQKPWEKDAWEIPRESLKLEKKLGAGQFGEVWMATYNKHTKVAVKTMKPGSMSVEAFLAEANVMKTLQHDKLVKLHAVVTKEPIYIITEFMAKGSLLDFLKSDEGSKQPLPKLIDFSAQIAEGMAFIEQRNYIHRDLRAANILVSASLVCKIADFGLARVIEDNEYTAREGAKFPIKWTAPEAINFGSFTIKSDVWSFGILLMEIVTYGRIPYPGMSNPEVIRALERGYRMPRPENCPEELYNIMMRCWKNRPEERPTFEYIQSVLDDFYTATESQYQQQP
With SGIYQYIIAKF [FOXL2_Y83] the phosphorylation enrichment was 6.52. With CSDPSYVKQME [CDC5L_Y464_Y459C] the phosphorylation enrichment was 0.492. Sequence IIGNGYFFHVF [MYBPC3_Y1135_R1138H_YF] has a phosphorylation enrichment of 0.314. MGGSVYFSFPD [HIKESHI_Y55_YF] was tested, and the phosphorylation enrichment was 2.64. Work on NFRRGYHLQVL [CD200R1L_Y138_H135R] yielded a phosphorylation enrichment of 0.386. For CTTIHHNFMCN [TP53_Y234_Y234H_YF], the phosphorylation enrichment was 0.436. With IFETDYFRKGG [INSR_Y1189_YF] the phosphorylation enrichment was 0.529. For WISNRYPDFSS [PRPH2_Y184_L185P], the phosphorylation enrichment was 0.497. GSRGKCSSGFR [ATM_Y332_Y332C] showed a phosphorylation enrichment of 0.464. RVQKRYILDNV [RCN1_Y115_F117L] showed a phosphorylation enrichment of 0.366. SETSRYLSDLF [KCNJ3_Y67] showed a phosphorylation enrichment of 0.515. For YPIDHYLGKEM [G6PD_Y202_R198P], the phosphorylation enrichment was 0.492. LEQDEYALHSH [HADHB_Y244_R247H] showed a phosphorylation enrichment of 0.598. Sequence SSQAHYRLSAF [ADAMTS9_Y100] has a phosphorylation enrichment of 0.434. In the case of QSSALYEDCYL [ASS1_Y83_R86C], the phosphorylation enrichment is reported as 1.84. GRPLSYWLTGC [LYZL6_Y140_F139S] showed a phosphorylation enrichment of 0.503. In the case of INSLKYAYNIS [EIF2B5_Y583], the phosphorylation enrichment is reported as 0.401. VHNLDYFKMTT [FGFR3_Y647_K650M_YF] was tested, and the phosphorylation enrichment was 0.394. For DLDPNYVVSSR [CKM_Y125_L127V], the phosphorylation enrichment was 0.573. YTGDIYSNSNL [LZTR1_Y141] showed a phosphorylation enrichment of 7.87. DPADRYLIEQC [CDKL5_Y286_T288I] gave a phosphorylation enrichment of 0.556. With ALTRSYIREKV [CYP2C8_Y243] the phosphorylation enrichment was 0.4. For SREDIYKRNIE [PDE4DIP_Y45], the phosphorylation enrichment was 0.603. In the case of AMCVRYDGVEV [ADAMTSL2_Y594], the phosphorylation enrichment is reported as 0.644. ARTNEYKIIRT [INA_Y87] showed a phosphorylation enrichment of 0.502. Work on FSLPAFMDRRD [COX4I1_Y38_Y38F] yielded a phosphorylation enrichment of 0.41. Work on FCVDCYKNFVA [FHL1_Y213_YF] yielded a phosphorylation enrichment of 0.529. With LFSLGYHQSLW [GANAB_Y396_R400L] the phosphorylation enrichment was 0.475. LYIDSYEKDVA [PGM1_Y521] showed a phosphorylation enrichment of 0.659. With FTFDPYSEEDP [IL2RB_Y387_YF] the phosphorylation enrichment was 0.562. Sequence SVTCTCSPALN [TP53_Y126_Y126C] has a phosphorylation enrichment of 0.526. In the case of MCDKEYYSVHN [MET_Y1234_Y1230C], the phosphorylation enrichment is reported as 0.734. SECCKYKTDNP [OSMR_Y689_I691T] was tested, and the phosphorylation enrichment was 0.452.

These sequences were tested on Fer (mouse) in the same assay as above.
In the case of SGIYQYIIAKF [FOXL2_Y83], the phosphorylation enrichment is reported as 9.49. CSDPSYVKQME [CDC5L_Y464_Y459C] gave a phosphorylation enrichment of 0.661. IIGNGYFFHVF [MYBPC3_Y1135_R1138H_YF] gave a phosphorylation enrichment of 0.398. Sequence MGGSVYFSFPD [HIKESHI_Y55_YF] has a phosphorylation enrichment of 0.55. NFRRGYHLQVL [CD200R1L_Y138_H135R] gave a phosphorylation enrichment of 0.439. Work on CTTIHHNFMCN [TP53_Y234_Y234H_YF] yielded a phosphorylation enrichment of 0.483. Work on IFETDYFRKGG [INSR_Y1189_YF] yielded a phosphorylation enrichment of 0.581. With WISNRYPDFSS [PRPH2_Y184_L185P] the phosphorylation enrichment was 0.484. Work on GSRGKCSSGFR [ATM_Y332_Y332C] yielded a phosphorylation enrichment of 0.433. Sequence RVQKRYILDNV [RCN1_Y115_F117L] has a phosphorylation enrichment of 0.337. For SETSRYLSDLF [KCNJ3_Y67], the phosphorylation enrichment was 0.555. In the case of YPIDHYLGKEM [G6PD_Y202_R198P], the phosphorylation enrichment is reported as 0.415. LEQDEYALHSH [HADHB_Y244_R247H] gave a phosphorylation enrichment of 0.642. In the case of SSQAHYRLSAF [ADAMTS9_Y100], the phosphorylation enrichment is reported as 0.347. QSSALYEDCYL [ASS1_Y83_R86C] gave a phosphorylation enrichment of 16.9. GRPLSYWLTGC [LYZL6_Y140_F139S] showed a phosphorylation enrichment of 0.556. Work on INSLKYAYNIS [EIF2B5_Y583] yielded a phosphorylation enrichment of 0.392. Work on VHNLDYFKMTT [FGFR3_Y647_K650M_YF] yielded a phosphorylation enrichment of 0.325. DLDPNYVVSSR [CKM_Y125_L127V] was tested, and the phosphorylation enrichment was 0.494. YTGDIYSNSNL [LZTR1_Y141] gave a phosphorylation enrichment of 3.56. DPADRYLIEQC [CDKL5_Y286_T288I] gave a phosphorylation enrichment of 0.511. ALTRSYIREKV [CYP2C8_Y243] showed a phosphorylation enrichment of 0.43. SREDIYKRNIE [PDE4DIP_Y45] gave a phosphorylation enrichment of 0.431. AMCVRYDGVEV [ADAMTSL2_Y594] showed a phosphorylation enrichment of 0.791. With ARTNEYKIIRT [INA_Y87] the phosphorylation enrichment was 0.512. With FSLPAFMDRRD [COX4I1_Y38_Y38F] the phosphorylation enrichment was 0.455. FCVDCYKNFVA [FHL1_Y213_YF] was tested, and the phosphorylation enrichment was 0.523. In the case of LFSLGYHQSLW [GANAB_Y396_R400L], the phosphorylation enrichment is reported as 0.474. LYIDSYEKDVA [PGM1_Y521] was tested, and the phosphorylation enrichment was 0.798. FTFDPYSEEDP [IL2RB_Y387_YF] gave a phosphorylation enrichment of 0.686. SVTCTCSPALN [TP53_Y126_Y126C] gave a phosphorylation enrichment of 0.533. Sequence MCDKEYYSVHN [MET_Y1234_Y1230C] has a phosphorylation enrichment of 0.594. SECCKYKTDNP [OSMR_Y689_I691T] gave a phosphorylation enrichment of 0.387.

Each sequence was assayed against FGFR3 (UniProt P22607) in the same assay as above.
FGFR3, sequence (P22607 whole entry, looked up): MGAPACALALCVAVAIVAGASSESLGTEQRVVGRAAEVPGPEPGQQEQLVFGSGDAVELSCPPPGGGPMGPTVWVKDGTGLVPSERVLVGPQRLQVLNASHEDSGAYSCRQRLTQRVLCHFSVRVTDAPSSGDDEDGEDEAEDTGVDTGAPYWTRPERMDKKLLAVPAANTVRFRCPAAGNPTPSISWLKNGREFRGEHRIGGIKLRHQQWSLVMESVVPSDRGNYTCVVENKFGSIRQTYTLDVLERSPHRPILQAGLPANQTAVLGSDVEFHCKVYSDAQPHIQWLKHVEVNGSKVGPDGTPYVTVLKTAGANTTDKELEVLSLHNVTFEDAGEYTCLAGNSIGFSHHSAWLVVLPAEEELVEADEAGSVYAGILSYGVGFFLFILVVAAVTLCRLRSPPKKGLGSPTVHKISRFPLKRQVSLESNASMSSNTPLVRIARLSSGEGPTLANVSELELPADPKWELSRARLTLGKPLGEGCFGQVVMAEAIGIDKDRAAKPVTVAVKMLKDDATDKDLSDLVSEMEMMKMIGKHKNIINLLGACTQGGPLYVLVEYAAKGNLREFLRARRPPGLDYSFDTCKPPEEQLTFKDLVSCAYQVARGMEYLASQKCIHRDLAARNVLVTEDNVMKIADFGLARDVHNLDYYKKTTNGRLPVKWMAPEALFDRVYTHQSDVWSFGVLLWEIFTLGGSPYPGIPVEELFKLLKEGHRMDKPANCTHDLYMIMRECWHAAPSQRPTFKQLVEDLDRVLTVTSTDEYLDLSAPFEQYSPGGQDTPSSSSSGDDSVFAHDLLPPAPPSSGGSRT
SGIYQYIIAKF [FOXL2_Y83] was tested, and the phosphorylation enrichment was 4.7. Sequence CSDPSYVKQME [CDC5L_Y464_Y459C] has a phosphorylation enrichment of 0.931. IIGNGYFFHVF [MYBPC3_Y1135_R1138H_YF] gave a phosphorylation enrichment of 0.699. In the case of MGGSVYFSFPD [HIKESHI_Y55_YF], the phosphorylation enrichment is reported as 2.85. Sequence NFRRGYHLQVL [CD200R1L_Y138_H135R] has a phosphorylation enrichment of 0.528. In the case of CTTIHHNFMCN [TP53_Y234_Y234H_YF], the phosphorylation enrichment is reported as 0.641. IFETDYFRKGG [INSR_Y1189_YF] was tested, and the phosphorylation enrichment was 0.686. Work on WISNRYPDFSS [PRPH2_Y184_L185P] yielded a phosphorylation enrichment of 0.685. GSRGKCSSGFR [ATM_Y332_Y332C] showed a phosphorylation enrichment of 0.423. For RVQKRYILDNV [RCN1_Y115_F117L], the phosphorylation enrichment was 0.327. In the case of SETSRYLSDLF [KCNJ3_Y67], the phosphorylation enrichment is reported as 0.627. In the case of YPIDHYLGKEM [G6PD_Y202_R198P], the phosphorylation enrichment is reported as 0.577. LEQDEYALHSH [HADHB_Y244_R247H] showed a phosphorylation enrichment of 0.805. Work on SSQAHYRLSAF [ADAMTS9_Y100] yielded a phosphorylation enrichment of 0.584. Sequence QSSALYEDCYL [ASS1_Y83_R86C] has a phosphorylation enrichment of 1.02. GRPLSYWLTGC [LYZL6_Y140_F139S] gave a phosphorylation enrichment of 0.793. With INSLKYAYNIS [EIF2B5_Y583] the phosphorylation enrichment was 0.474. With VHNLDYFKMTT [FGFR3_Y647_K650M_YF] the phosphorylation enrichment was 4.21. DLDPNYVVSSR [CKM_Y125_L127V] gave a phosphorylation enrichment of 0.69. Sequence YTGDIYSNSNL [LZTR1_Y141] has a phosphorylation enrichment of 0.616. Work on DPADRYLIEQC [CDKL5_Y286_T288I] yielded a phosphorylation enrichment of 0.777. ALTRSYIREKV [CYP2C8_Y243] showed a phosphorylation enrichment of 0.367. Work on SREDIYKRNIE [PDE4DIP_Y45] yielded a phosphorylation enrichment of 0.585. Sequence AMCVRYDGVEV [ADAMTSL2_Y594] has a phosphorylation enrichment of 0.781. In the case of ARTNEYKIIRT [INA_Y87], the phosphorylation enrichment is reported as 0.452. Work on FSLPAFMDRRD [COX4I1_Y38_Y38F] yielded a phosphorylation enrichment of 0.537. FCVDCYKNFVA [FHL1_Y213_YF] showed a phosphorylation enrichment of 0.617. With LFSLGYHQSLW [GANAB_Y396_R400L] the phosphorylation enrichment was 0.786. Sequence LYIDSYEKDVA [PGM1_Y521] has a phosphorylation enrichment of 1.14. FTFDPYSEEDP [IL2RB_Y387_YF] showed a phosphorylation enrichment of 0.698. For SVTCTCSPALN [TP53_Y126_Y126C], the phosphorylation enrichment was 0.889. Work on MCDKEYYSVHN [MET_Y1234_Y1230C] yielded a phosphorylation enrichment of 3.33. SECCKYKTDNP [OSMR_Y689_I691T] showed a phosphorylation enrichment of 0.655.

These sequences were tested on c-Src in the same assay as above.
With SGIYQYIIAKF [FOXL2_Y83] the phosphorylation enrichment was 3.69. For CSDPSYVKQME [CDC5L_Y464_Y459C], the phosphorylation enrichment was 0.488. In the case of IIGNGYFFHVF [MYBPC3_Y1135_R1138H_YF], the phosphorylation enrichment is reported as 0.34. MGGSVYFSFPD [HIKESHI_Y55_YF] showed a phosphorylation enrichment of 5.05. NFRRGYHLQVL [CD200R1L_Y138_H135R] gave a phosphorylation enrichment of 0.38. CTTIHHNFMCN [TP53_Y234_Y234H_YF] showed a phosphorylation enrichment of 0.362. Work on IFETDYFRKGG [INSR_Y1189_YF] yielded a phosphorylation enrichment of 0.539. With WISNRYPDFSS [PRPH2_Y184_L185P] the phosphorylation enrichment was 0.52. Work on GSRGKCSSGFR [ATM_Y332_Y332C] yielded a phosphorylation enrichment of 0.387. With RVQKRYILDNV [RCN1_Y115_F117L] the phosphorylation enrichment was 0.409. For SETSRYLSDLF [KCNJ3_Y67], the phosphorylation enrichment was 0.549. For YPIDHYLGKEM [G6PD_Y202_R198P], the phosphorylation enrichment was 0.505. LEQDEYALHSH [HADHB_Y244_R247H] showed a phosphorylation enrichment of 0.665. With SSQAHYRLSAF [ADAMTS9_Y100] the phosphorylation enrichment was 0.41. Sequence QSSALYEDCYL [ASS1_Y83_R86C] has a phosphorylation enrichment of 3.61. Work on GRPLSYWLTGC [LYZL6_Y140_F139S] yielded a phosphorylation enrichment of 0.397. INSLKYAYNIS [EIF2B5_Y583] gave a phosphorylation enrichment of 0.412. VHNLDYFKMTT [FGFR3_Y647_K650M_YF] was tested, and the phosphorylation enrichment was 0.397. For DLDPNYVVSSR [CKM_Y125_L127V], the phosphorylation enrichment was 0.46. YTGDIYSNSNL [LZTR1_Y141] showed a phosphorylation enrichment of 4.63. In the case of DPADRYLIEQC [CDKL5_Y286_T288I], the phosphorylation enrichment is reported as 0.518. With ALTRSYIREKV [CYP2C8_Y243] the phosphorylation enrichment was 0.419. SREDIYKRNIE [PDE4DIP_Y45] gave a phosphorylation enrichment of 0.405. AMCVRYDGVEV [ADAMTSL2_Y594] showed a phosphorylation enrichment of 0.542. For ARTNEYKIIRT [INA_Y87], the phosphorylation enrichment was 0.569. Work on FSLPAFMDRRD [COX4I1_Y38_Y38F] yielded a phosphorylation enrichment of 0.459. Sequence FCVDCYKNFVA [FHL1_Y213_YF] has a phosphorylation enrichment of 0.461. LFSLGYHQSLW [GANAB_Y396_R400L] was tested, and the phosphorylation enrichment was 0.42. With LYIDSYEKDVA [PGM1_Y521] the phosphorylation enrichment was 0.69. With FTFDPYSEEDP [IL2RB_Y387_YF] the phosphorylation enrichment was 1.18. SVTCTCSPALN [TP53_Y126_Y126C] showed a phosphorylation enrichment of 0.415. MCDKEYYSVHN [MET_Y1234_Y1230C] was tested, and the phosphorylation enrichment was 1.02. Work on SECCKYKTDNP [OSMR_Y689_I691T] yielded a phosphorylation enrichment of 0.443.
